Test results taken from article PMC4229625.

Target: GST-Ana2 phosphorylated by active Plk4 (MBP-Plk4) (Drosophila) (UniProt Q9XZ31)
Assay: pull-down; recombinant GST-Ana2 (or its fragments or mutants) on beads, incubated with active MBP-Plk4 or inactive MBP-Plk4^KD, then with ^35S-Met-labeled proteins made by in vitro transcription and translation; SDS-PAGE and autoradiography

UniProt Q9XZ31, sequence (Q9XZ31 entry or part of it): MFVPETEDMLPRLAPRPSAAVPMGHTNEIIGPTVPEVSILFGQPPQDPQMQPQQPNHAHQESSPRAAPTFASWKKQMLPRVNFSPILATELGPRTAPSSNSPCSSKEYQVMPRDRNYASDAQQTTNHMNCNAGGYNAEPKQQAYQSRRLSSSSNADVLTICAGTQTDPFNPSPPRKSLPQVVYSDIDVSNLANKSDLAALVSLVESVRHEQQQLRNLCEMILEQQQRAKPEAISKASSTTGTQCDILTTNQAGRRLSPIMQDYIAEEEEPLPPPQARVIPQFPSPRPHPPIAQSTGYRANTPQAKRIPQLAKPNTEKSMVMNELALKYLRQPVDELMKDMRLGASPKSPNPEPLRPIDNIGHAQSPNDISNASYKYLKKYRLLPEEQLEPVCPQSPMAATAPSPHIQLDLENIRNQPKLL

^35S-Met-labeled Bld10 (natural protein)
fold increase of binding against Ana2 treated with inactive Plk4: 3.5 fold
